Key:
[1] = Isoelectric point by isoelectrophoresis (2% ampholine gel); format: physicochemical; details: gel containing 2% (w/v) ampholine
From the text: Purified specimens of the polypeptide having α-isomaltosylglucosaccharide-forming enzyme activity from Bacillus globisporus C11 obtained by the method in Experiment 1-3, Bacillus globisporus N75 obtained by the method in Experiment 2–3, and Arthrobacter globiformis A19 obtained by the method in Experiment 3-3 were subjected to isoelectrophoresis using a gel containing 2% (w/v) ampholine commercialized by Amersham Biosciences K. K., Tokyo, Japan (old name, Amersham Pharmacia Biotech), and then measured pHs of protein bands and gel to determine their isoelectric points.

[2] = Thermal stability and pH stability (residual enzyme activity); format: physicochemical; details: 20 mM Glycine-NaOH buffer pH 8.0, 60 minutes
Description: The thermal stability of the polypeptide having α-isomaltosylglucosaccharide-forming enzyme activity was determined by incubating the testing polypeptide solution in 20 mM acetate buffer, pH6.0 (in the case of the polypeptide from a strain A19, 20 m M Glycine-NaOH buffer, pH 8.0) at prescribed temperatures for 60 minutes in the presence or absence of 1 mM Ca^2+, cooling with water the resulting polypeptide solutions, and assaying the residual enzyme activity of each solution. The pH stability of the polypeptide having α-isomaltosylglucosaccharide-forming enzyme activity was determined by keeping the testing polypeptide solutions in 50 mM buffer having prescribed pHs at 4° C. for 24 hours, adjusting the pH of each solution to 6.0 (in the case of the polypeptide from a strain A19, pH 8.0), and assaying the residual enzyme activity of each solution. […] The thermal stability of the polypeptide having α-isomaltosylglucosaccharide-forming enzyme activity from a strain C11 was up to about 40° C. (in the absence of Ca^2+) and about 45° C. (in the presence of Ca^2+), and pH stability of about 5.0 to about 10.0. The thermal stability of the polypeptide having α-isomaltosylglucosaccharide-forming enzyme activity from a strain N75 was up to about 45° C. (in the absence of Ca^2+) and about 50° C. (in the presence of Ca^2+), and pH stability of about 5.0 to about 9.0. The thermal stability of the polypeptide having α-isomaltosylglucosaccharide-forming enzyme activity from a strain A19 was up to about 55° C. (in the absence of Ca^2+) and about 60° C. (in the presence of Ca^2+), and pH stability of about 5.0 to about 9.0.

[3] = Test on reducing-power formation; format: biochemical; details: 1% (w/v) maltotetraose, 0.25 unit/g substrate, 35° C., pH 6.0 (pH 8.4 for A19)
Description: The following test was carried out to study whether the polypeptide having α-isomaltosylglucosaccharide-forming enzyme activity had the ability of forming reducing-power or not. To a 1% (w/v) aqueous solution of maltotetraose as a substrate was added 0.25 unit/g substrate, d.s.b., of either of purified polypeptide specimen of α-isomaltosylglucosaccharide-forming enzyme from Bacillus globisporus C11 obtained by the method in Experiment 1-3, Bacillus globisporus N75 obtained by the method in Experiment2-3, or Arthrobacter globiformis A19 obtained by the method in Experiment 3-3, and incubated at 35° C. and at pH 6.0, except that pH 8.4 was used for the enzyme from Arthrobacter globiformis A19. During the reaction, a portion of each reaction mixture was sampled at prescribed time intervals and measured for reducing power after keeping at 100° C. for 10 minutes to stop the enzymatic reaction. Before and after the enzymatic reaction, the reducing sugar content and total sugar content were respectively quantified by the Somogyi-Nelson method and anthrone-sulfuric acid method. The percentage of forming reducing power was calculated by the following equation: Percentage of forming reducing power (%)=(AR/AT−BR/BT)×100 Equation: • AR: Reducing sugar content after enzymatic reaction. • AT: Total sugar content after enzymatic reaction. • BR: Reducing sugar content before enzymatic reaction. • BT: Total sugar content before enzymatic reaction.

[4] = Effect of temperature and pH on α-isomaltosylglucosaccharide-forming enzyme activity; format: biochemical; details: for Optimum temperature: pH 8.4 for 60 minutes
Description: The two types of enzymatic activities described above were measured as following. The activity of α-isomaltosylglucosaccharide-forming enzyme was measured by the following assay: A substrate solution was prepared by dissolving maltotriose in 100 mM acetate buffer (pH 6.0) to give a concentration of 2% (w/v). A reaction mixture was prepared by mixing 0.5 ml of the substrate solution and 0.5 ml of an enzyme solution, and incubated at 35° C. for 60 minutes. After stopping the reaction by boiling for 10 minutes, the amount of maltose formed in the reaction mixture was determined by high-performance liquid chromatography (HPLC). One unit of α-isomaltosylglucosaccharide-forming activity was defined as the amount of the enzyme that forms one μmole of maltose per minute under the above conditions. HPLC was carried out using “SHODEX KS-801 column”, Showa Denko K. K., Tokyo, Japan, at a column temperature of 60° C. and a flow rate of 0.5 ml/minutes of water, and using “RI-8012”, a differential refractometer commercialized by Tosoh Corporation, Tokyo, Japan.
The effect of temperature and pH on the α-isomaltosylglucosaccharide-forming enzyme activity was examined in accordance with the assay for the α-isomaltosylglucosaccharide-forming enzyme activity under various temperature and pH conditions. The effect of temperature was conducted in the presence or absence of 1 mM Ca^2+. […] The optimum temperature of the polypeptide having α-isomaltosylglucosaccharide-forming enzyme activity from a strain C11 was about 45° C. (in the absence of Ca^2+) and about 50° C. (in the presence of Ca^2+) when incubated at pH 6.0 for 60 minutes, and the optimum pH was about 6.0 when incubated at 35° C. for 60 minutes. The optimum temperature of the polypeptide having α-isomaltosylglucosaccharide-forming enzyme activity from a strain N75 was about 50° C. (in the absence of Ca^2+) and about 55° C. (in the presence of Ca^2+) when incubated at pH 6.0 for 60 minutes, and the optimum pH was about 6.0 when incubated at 35° C. for 60 minutes. The optimum temperature of the polypeptide having α-isomaltosylglucosaccharide-forming enzyme activity from a strain A19 was about 60° C. (in the absence of Ca^2+) and about 65° C. (in the presence of Ca^2+) when incubated at pH 8.4 for 60 min, and the optimum pH was about 8.4 when incubated at 35° C. for 60 minutes.

B1: Enzyme of Strain A19: purified polypeptide having α-isomaltosylglucosaccharide-forming enzyme activity from Arthrobacter globiformis A19 (Experiment 3-3); contains SEQ ID NO: 3 (protein)
chain: APLGVQRAQFQSGSSYLVVEVLDDDLVHFELAGGGTAPGTGSPLFTTPQVAKHDYAGPDVFTQTGSVLQTAAMRIEVDPADLCVTATDITRTPNLVLHEACPADLGQAWKGLNITRSAMENAYGLGQQFFTGGSADGDWVGRTRTPGGTYGNAMVFDPENGPVGNTQIPVLFAVGDDNANYGLFVDQLYKQEWNLTGDPWTVRMWGDQVRWYLMSGDDLPDLRHDYMELTGTPPVPPKKAFGLWVSEFGYDNWSEVDNTIAGLRSADFPVDGAMLDVQWFGGVTADSDDTRMGTLDWDTSRFPDPAGKIADLAEDGVGIIPIEESYVGRNLPEHARMAADGYLVRSGCATCPPVYLTGNPWWGKGGMIDWTQPEAGAVWHDEQRQHLVDEGVLGHWLDLGEPEMYDPNDWTAGVIPGKHAHADYHNAYNLLWAQSIADGYADNGVQKRPFMLTRAAAAGIQRHGAGMWSADIGSTMKALGSQQNAQMHMSMSGIDYYGSDIGGFRREMADGDVNELYTQWFADSAWFDTPLRPHTDNLCNCLETSPDSIGDVASNRENLVRRYELAPYYYSLAHRAHQFGEPLAPPLVYYYQNDDHVREMGHQKMLGRDLLIAIVAGEGERERDVYLPAGEWIDIHTNERIQSTGQWIDNVPLWRDGVFTLPAYARAGAIIPKAFVDASTKDITGKREDAAVRNELIATVYADDVASDFTLYEDDGATTAYADGAVRTTQISQSLTNGVATVTVGAASGTYSGAPSTRPTVVELVTDGTQASTVSLGSVPLTEHANKAAFDAASSGWYNAGGGLVVAKAASSSVNTAKTFSFTLGEESVWATFSCENATTTFGQSVYVVGNVPQLGNWSPADAVKLEPSAYPTWTGVVRNLPPSSTVEWKCIKRQEAGLPNTADAWEPGGNNILSTPPSGSAGITTGAF
modifications: Arthrobacter globiformis A19
Isoelectric point [1]: about 4.3±0.5
Thermal stability ([2]; in the absence of Ca2+): up to 55 °C
Thermal stability ([2]; in the presence of 1 mM Ca2+): ≤ 60 °C
Percentage of forming reducing power ([3]; reaction time 0 hour): 0.0%
Percentage of forming reducing power ([3]; reaction time 1 hour): 0.0%
Percentage of forming reducing power ([3]; reaction time 2 hours): 0.1%
Percentage of forming reducing power ([3]; reaction time 4 hours): 0.0%
Percentage of forming reducing power ([3]; reaction time 8 hours): 0.1%
Optimum temperature ([4]; in the absence of Ca2+): about 60 °C
Optimum temperature ([4]; in the presence of 1 mM Ca2+): about 65 °C
Optimum pH ([4]; incubated at 35° C. for 60 minutes): about 8.4
